Measured values taken from the RNAGym collection of RNA variant scans (doi:10.7554/elife.80360).

B1: Twister Ribozyme (parent)
chain: AACACUGCCAAUGCCGGUCCCAAGCCCGGAUAAAAGUGGAGGGGGCGG

Variants of: B1
Experiment: self-cleavage, relative activity (ratio to wild type); higher = more cleavage; co-transcriptional

Variant	self-cleavage
AACCCUGCCAAUGCCGGUCCCAAGCCCGGAUAAAAGUGGAGCGGGCGG [A4C G42C]	0.125
AACCCUGCCAAUGCCGGUCCCAAGCCCGGAUAAAAGUGGAGUGGGCGG [A4C G42U]	0.0422
AACGCUGCCAAUGCCGGUCCCAAGCCCGGAUAAAAGUGGAUGGGGCGG [A4G G41U]	0.405
AACGCUGCCAAUGCCGGUCCCAAGCCCGGAUAAAAUUGGAGGGGGCGG [A4G G36U]	0.164
AACGCUGCCAAUGCCGGUCCCAAGCCCGGAUAAAACUGGAGGGGGCGG [A4G G36C]	0.182
AACCCUGCCAAUGCCGGUCCCAAGCCCGGAUAAAAGUGGAGGAGGCGG [A4C G43A]	0.0357
AACCCUGCCAAUGCCGGUCCCAAGCCCGGAUAAAAGUGGAGGUGGCGG [A4C G43U]	0.103
AACCCUGCCAAUGCCGGUCCCAACCCCGGAUAAAAGUGGAGGGGGCGG [A4C G24C]	0.078
AACCCUGCCAAUGCCGGUCCCAAUCCCGGAUAAAAGUGGAGGGGGCGG [A4C G24U]	0.0584
AACCCUGCCAAUGCCGGUCCCAAACCCGGAUAAAAGUGGAGGGGGCGG [A4C G24A]	0.0887
AACGCUGCCAAUGCCGGUCCCAAGCCCGGAUAAGAGUGGAGGGGGCGG [A4G A34G]	0.61
AACCCUGCCAAUGCCGGUCCCAAGCCCGGAUAAAAGUGGAGGGGGCGU [A4C G48U]	0.232
AACGCUGCCAAUGCCGGUCCCAAGCCCGGAUAAAAGUAGAGGGGGCGG [A4G G38A]	0.867
AACGCUGGCAAUGCCGGUCCCAAGCCCGGAUAAAAGUGGAGGGGGCGG [A4G C8G]	0.289
AACGCGGCCAAUGCCGGUCCCAAGCCCGGAUAAAAGUGGAGGGGGCGG [A4G U6G]	0.074
AACGCAGCCAAUGCCGGUCCCAAGCCCGGAUAAAAGUGGAGGGGGCGG [A4G U6A]	0.866
AACCCUGCCAAUGCCGUUCCCAAGCCCGGAUAAAAGUGGAGGGGGCGG [A4C G17U]	0.0801
AACCCUGCCAAUGCCGAUCCCAAGCCCGGAUAAAAGUGGAGGGGGCGG [A4C G17A]	0.0548
AACGCUGCCAAUGCCGGUCCCAAGCCCGGGUAAAAGUGGAGGGGGCGG [A4G A30G]	0.81
AACGCUGCCAAUGCCGGUCCCAAGCCAGGAUAAAAGUGGAGGGGGCGG [A4G C27A]	0.279
AACGCUGCCAAUGCCGGUCCCAAGCCUGGAUAAAAGUGGAGGGGGCGG [A4G C27U]	0.74
AACCCUGCCAAAGCCGGUCCCAAGCCCGGAUAAAAGUGGAGGGGGCGG [A4C U12A]	0.193
AACCCUGCCAAGGCCGGUCCCAAGCCCGGAUAAAAGUGGAGGGGGCGG [A4C U12G]	0.332
AACGCUGCCAAUGCCGGUCCCAAGCCCGGAUAAAAGUGGAGGGGGCUG [A4G G47U]	0.902
AACGCUGCCAAUGCCGGUCCCAAGCCCGGAUAAAAGUGGAGGGGGCAG [A4G G47A]	0.91
AACGCUGCCAAUGCCGGUCUCAAGCCCGGAUAAAAGUGGAGGGGGCGG [A4G C20U]	1.06
AACGCUGCCAAUGCCGGUCACAAGCCCGGAUAAAAGUGGAGGGGGCGG [A4G C20A]	0.14

Variant	self-cleavage
AACCCUGCCAAUGCCGGUCCCAAGCCCGGAUAAAAUUGGAGGGGGCGG [A4C G36U]	0.0758
AACCCUGCCAAUGCCGGUCCCAAGCCCGGAUAAAAGUGGAGGGGGCAG [A4C G47A]	0.178
AACCCUGCCAAUGCCGGUCCCAAGCCCGGAUAAAAGUGGAGGGGGCCG [A4C G47C]	0.0906
AACCCUGCCAAUGCCGGUCCCAAGCCCGGACAAAAGUGGAGGGGGCGG [A4C U31C]	0.249
AACGCUGCCAAUGCCGGUCCCAAGCCCGGAUAGAAGUGGAGGGGGCGG [A4G A33G]	0.941
AACGCUGCCAAUGCCGGUCCCAAGCCCGGAUACAAGUGGAGGGGGCGG [A4G A33C]	0.721
AACGCUGCCAAUGCCGGUCCCAAUCCCGGAUAAAAGUGGAGGGGGCGG [A4G G24U]	0.12
AACGCUGCCAAUGCCGGUACCAAGCCCGGAUAAAAGUGGAGGGGGCGG [A4G C19A]	0.0929
AACGCUGCCAAUGCCGGUGCCAAGCCCGGAUAAAAGUGGAGGGGGCGG [A4G C19G]	0.166
AACGCUGCCAAUGCCGGUUCCAAGCCCGGAUAAAAGUGGAGGGGGCGG [A4G C19U]	0.887
AACCCUGCCAAUGCCGGUCCCAAGCCCGGAUAAAAGCGGAGGGGGCGG [A4C U37C]	0.122
AACCCUGCCAAUGCCGGUCCCAAGCCCGGAUAAAAGAGGAGGGGGCGG [A4C U37A]	0.766
AACCCUGCCAAUGCCGGUCCCAAGCCCGGAUAAAAGGGGAGGGGGCGG [A4C U37G]	0.623
AACGCUGCCAAUGCCAGUCCCAAGCCCGGAUAAAAGUGGAGGGGGCGG [A4G G16A]	0.918
AACGCUGCCAAUGCCUGUCCCAAGCCCGGAUAAAAGUGGAGGGGGCGG [A4G G16U]	0.839
AACGCUGCCAAUGCCCGUCCCAAGCCCGGAUAAAAGUGGAGGGGGCGG [A4G G16C]	0.243
AACGCUGCCAAUGCCGGUCCCAAGCCCGAAUAAAAGUGGAGGGGGCGG [A4G G29A]	0.819
AACCCUGCCAAUGCCGGUCCCAAGCCCGGAUAAAAGUGGACGGGGCGG [A4C G41C]	0.0877
AACCCUGCCAAUGCCGGUCCCAAGCCCGGAUAAAAGUGGAUGGGGCGG [A4C G41U]	0.0895
AACGCUGCCAAUGCAGGUCCCAAGCCCGGAUAAAAGUGGAGGGGGCGG [A4G C15A]	0.631
AACGCUGCCAAUGCCGGUCCCAAGACCGGAUAAAAGUGGAGGGGGCGG [A4G C25A]	0.054
AACGCUGCCAAUGCCGGUCCCAAGGCCGGAUAAAAGUGGAGGGGGCGG [A4G C25G]	0.189
AACGCUGCCAGUGCCGGUCCCAAGCCCGGAUAAAAGUGGAGGGGGCGG [A4G A11G]	0.96
AACGCUGCCAAUGCCGGUCCCAAGCCCGGAUAAAUGUGGAGGGGGCGG [A4G A35U]	0.844
AACGCUGCCAAUGCCGGUCCCAAGCCCGGAUAAAGGUGGAGGGGGCGG [A4G A35G]	0.525
AACGCUGCCAAUGCCGGUCCCAAGCCCGGAUAAACGUGGAGGGGGCGG [A4G A35C]	0.865
AACGCUUCCAAUGCCGGUCCCAAGCCCGGAUAAAAGUGGAGGGGGCGG [A4G G7U]	0.052
